Series [1] concerns the target T1, NLuc-P54nrb full length (human, UniProt Q15233 1-471).
T1 sequence: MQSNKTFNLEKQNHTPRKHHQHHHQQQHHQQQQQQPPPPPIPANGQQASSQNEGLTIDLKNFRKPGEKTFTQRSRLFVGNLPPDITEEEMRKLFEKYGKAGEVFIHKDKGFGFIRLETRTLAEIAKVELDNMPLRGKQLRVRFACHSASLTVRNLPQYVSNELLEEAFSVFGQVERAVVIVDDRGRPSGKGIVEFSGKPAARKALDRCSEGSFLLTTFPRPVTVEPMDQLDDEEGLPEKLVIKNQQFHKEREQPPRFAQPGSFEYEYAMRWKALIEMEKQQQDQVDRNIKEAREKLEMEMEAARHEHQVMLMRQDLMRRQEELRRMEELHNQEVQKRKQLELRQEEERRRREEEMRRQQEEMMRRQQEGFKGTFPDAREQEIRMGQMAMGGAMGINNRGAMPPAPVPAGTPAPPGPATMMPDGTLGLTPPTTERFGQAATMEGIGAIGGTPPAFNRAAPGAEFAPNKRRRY
In words: competition.

In another series the target is T2, RNase H1 CAT N151A (human, UniProt O60930 81-286, N151A).
T2 sequence: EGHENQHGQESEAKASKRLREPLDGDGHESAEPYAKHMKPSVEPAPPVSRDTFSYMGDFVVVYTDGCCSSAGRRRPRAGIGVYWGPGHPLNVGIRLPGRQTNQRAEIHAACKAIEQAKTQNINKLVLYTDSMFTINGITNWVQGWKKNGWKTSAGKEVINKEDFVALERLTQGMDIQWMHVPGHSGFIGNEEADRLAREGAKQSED
In words: NanoBRET. A general note: In BRET a luciferase serves as donor, and the signal depends on an acceptor being close.

The target of another series is T3, RNase H1 CAT R179A (human, UniProt O60930 81-286, R179A).
T3 sequence: T2 sequence with A71N, R99A
Kind of series: NanoBRET.

In another series the target is T4, RNase H1 HBD K59A,K60A (human, UniProt O60930 1-80, K59A;K60A).
T4 sequence: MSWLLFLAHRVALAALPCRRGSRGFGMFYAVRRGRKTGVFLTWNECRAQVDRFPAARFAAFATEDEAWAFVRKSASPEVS
In words: NanoBRET.

In series [2] the target is T1, NLuc-P54nrb full length. In words: NanoBRET.

Changes are numbered by the printed parent chain. Some results are limits rather than exact numbers.

B1: PO RNA (ssRNA)
RNA: CUGCUAGCCUCUGGAUUUGA
For B1, the binding result with NLuc-P54nrb full length [1] is “no binding”.

B2: PO DNA/RNA heteroduplex (DNA:RNA)
DNA: CTGCTAGCCTCTGGATTTGA
RNA: UCAAAUCCAGAGGCUAGCAG
As to B2, the results for the binding signal in the series with RNase H1 CAT N151A, with RNase H1 CAT R179A and with RNase H1 HBD K59A,K60A were more than 7 fold weaker than WT CAT, more than 2 fold weaker than WT CAT and approximately 10 fold weaker than WT HBD, respectively.

B3: PO DNA (ssDNA)
DNA: CTGCTAGCCTCTGGATTTGA
B3: in the series with NLuc-P54nrb full length [1], the binding result is on record as “no binding”.

B4: ASO 766638 (2'-F gapmer) (XNA)
DNA: CTGCTAGCCTCTGGATTTGA
modifications: full PS; 5-10-5 gapmer, 2'-F wings, DNA gap
On to B4, for which, in the series with NLuc-P54nrb full length [2], the dissociation constant Kd (as a rule, the constant that tells how readily two partners part at equilibrium) was approximately 3 nM.

The values above are taken from article PMC6846478.
